B1: CR6262 (antibody, V domains shown)
VH: QVQLQQSGAEVKKPGSSVKVSCKVSGVIFSGSAISWVRQAPGQGLEWMGGISPLFGTTNYAQKFQGRVTITADQSTNTTYMEVNSLRYEDTAVYFCARGPKYYSEYMDVWGKGTTVTVSS
VL: DIQMTQSPSSLSASVGDRVTITCRASQGISSYLAWYQQKPGKVPTLLIYDASTLRSGVPSRFSGSGSATDFTLTISSLQPEDVATYYCQRYNSAPPITFGQGTRLEIKR
B2: CR6328 (antibody, V domains shown)
VH: EVQLVESGAEVKKPGSSVKVSCKASGHIFSGYAISWVRQAPGQGLEWMGGIIPIFGTTNYAQKFQGRVTITADQSTSTAYMDLSNLRSEDTAVYYCARVKDGYCTLTSCPVGWYFDLWGRGTLVTVSS
VL: not shown
B3: CR6141 (antibody, V domains shown)
VH: EVQLVQSGAEVKKPGASVKVSCKASGYTFTGYYVYWVRQAPGQGLEWMGWISAYNGNTNYAQKFQGRVTITADKSTSTAYMELSSLRSEDTAVYYCARSRSLDVWGQGTTVTVSS
VL: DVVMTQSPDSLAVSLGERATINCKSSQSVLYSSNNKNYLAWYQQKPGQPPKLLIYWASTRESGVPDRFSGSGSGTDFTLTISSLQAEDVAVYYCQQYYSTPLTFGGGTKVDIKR
B4: CR6344 (antibody, V domains shown)
VH: QVQLVQSGAEVKKPGSSVRVSCKASGSIFRNYAMSWVRQAPGQGLEWMGGIIAIFGTPKYAQKFQGRVTITADESTSTVYMELSGLRSEDTAMYYCARIPHYNFGSGSYFDYWGQGTLVTVSS
VL: TVLTQPPSVSGAPGQRVTISCTGSSSNIGAGYDVHWYQQLPGTAPKLLIYGNSNRPSGVPDRFSGSKSGTSATLGITGLQTGDEADYYCGTWDSSLSAYVFGTGTKVTVLG
B5: CR6329 (antibody, V domains shown)
VH: EVQLVQSGAEVKKPGSSVKVSCKASGGIFRSNSISWVRQAPGQGLEWMGGIFALFGTTDYAQKFQGRVTITADESSTTVYLELSSLTSEDTAVYYCARGSGYTTRNYFDYWGQGTLVTVSS
VL: EIVLTQSPGTLSLSPGERATLSCRASQSVSSNYLGWYQQKPGQAPRLLIYGASSRASGIPDRFSGGGSGTDFTLTISRLEPEDFAVYYCQQYGSSPLTFGGGTKVEIKR
B6: CR6327 (antibody, V domains shown)
VH: EVQLVETGAEVKKPGSSVKVSCKASGGTFRTHAISWVRQAPGQGLEWMGGIIAIFGTANYAQKFQGRITITADESTSTAYMELSSLRSEDTAVYFCARGSGYHISTPFDNWGQGTLVTVSS
VL: SYVLTQPPSVSVAPGQTARITCGGNNIGSKGVHWYQQKPGQAPVLVVYDDSDRPSGIPERFSGSNSGNTATLTISRVEAGDEADYYCQVWDSSSDHVVFGGGTKLTVLG
B7: CR6331 (antibody, V domains shown)
VH: EVQLVESGAEVKKPGSSVKVSCKASGGTFSSYAISWVRQAPGQGLEWMGGIIGMFGTANYAQKFQGRVTITADEFTSTAYMELSSLRSEDTAVYYCARGNYYYESSLDYWGQGTLVTVSS
VL: QSVVTQPPSVSVAPGQTARITCGGNNIGSKSVHWYQQKPGQAPVLVVYDDSDRPSGIPERFSGSNSGNTATLTISRVEAGDEADYYCQVWDSSSDHYVFGTGTKVTVLG
B8: CR6332 (antibody, V domains shown)
VH: QVQLVQSGAEVKKPGSSVKVSCKASGGPFRNFAINWVRQAPGQGLEWMGGIIAVFGTTKYAHKFQGRVTITADDSTNTAYMELGSLKSEDTAVYYCARGPHYYSSYMDVWGEGTTVTVSS
VL: DIQLTQSPSSLSASVGDRVTITCRASQGISTYLAWYQQKPGKVPKLLIYAASTLQSGVPSRFSGSGSGTDFTLTISSLQPEDVATYYCQKYNSAPSFGPGTKVDIKR
B9: CR6325 (antibody, V domains shown)
VH: EVQLVESGAEVKKPGSSVKVSCKASGGTFSFYSMSWVRQAPGQGLEWMGGIIPMFGTTNYAQKFQGRVTITAVESTSTAYMEVSSLRSEDTAVYYCARGDKGIYYYYMDVWGKGTTVTVSS
VL: QSALTQPASVSGSPGQSITISCTGTSSDVGGYNYVSWYQQHPGKAPKLMIYEVSNRPSGVSNRFSGSKSGNTASLTISGLQAEDEADYYCSSYTSSSTLVFGTGTKVTVLG
B10: CR6334 (antibody, V domains shown)
VH: EVQLVETGAEVKKPGSSVKVPCKSSGSPFRSNAVSWVRQAPGQGLEWVGGILGVFGSPSYAQKFQGRVTITADESTNTVHMELRGLRSEDTAVYYCARGPTYYYSYMDVWGKGTTVTVSS
VL: SYVLTQPPSESVAPGQTARITCGGNNIGRNSVHWYQQKPGQAPVLVVYDDSDRPSGIPERFSGSKSGNTATLIISRVEVGDEADYYCQVWHSSSDHYVFGTGTKVTVLG
B11: CR6255 (antibody, V domains shown)
VH: EVQLVESGAEVKKPGSSVKVSCKASGGPFRSYAISWVRQAPGQGPEWMGGIIPIFGTTKYAPKFQGRVTITADDFAGTVYMELSSLRSEDTAMYYCAKHMGYQVRETMDVWGKGTTVTVSS
VL: SYVLTQPPSASGTPGQRVTISCSGSTFNIGSNAVDWYRQLPGTAPKLLIYSNNQRPSGVPDRFSGSRSGTSASLAISGLQSEDEADYYCAAWDDILNVPVFGGGTKLTVLG
B12: CR6261 (antibody, V domains shown)
VH: EVQLVESGAEVKKPGSSVKVSCKASGGPFRSYAISWVRQAPGQGPEWMGGIIPIFGTTKYAPKFQGRVTITADDFAGTVYMELSSLRSEDTAMYYCAKHMGYQVRETMDVWGKGTTVTVSS
VL: QSVLTQPPSVSAAPGQKVTISCSGSSSNIGNDYVSWYQQLPGTAPKLLIYDNNKRPSGIPDRFSGSKSGTSATLGITGLQTGDEANYYCATWDRRPTAYVVFGGGTKLTVLG
B13: CR6314 (antibody, V domains shown)
VH: EVQLVESGAEVKKPGSSVKVSCKASGGPFRSYAISWVRQAPGQGPEWMGGIIPIFGTTKYAPKFQGRVTITADDFAGTVYMELSSLRSEDTAMYYCAKHMGYQVRETMDVWGKGTTVTVSS
VL: SYVLTQPPSASGTPGQRVTISCSGSSSNIGSNYVYWYQQLPGTAPKLLIYRDGQRPSGVPDRFSGSKSGTSASLAISGLRSDDEADYYCATWDDNLSGPVFGGGTKLTVLG
B14: CR6257 (antibody, V domains shown)
VH: QVQLVQSGAEVKKPGSSVKVSCKASGGPFRSYAISWVRQAPGQGPEWMGGIIPIFGTTKYAPKFQGRVTITADDFAGTVYMELSSLRSEDTAMYYCAKHMGYQVRETMDVWGKGTTVTVSS
VL: QSALTQPAAVSGSPGQSITISCTGTSSDVGGYNYVSWYQQHPGKAPKLMIYEVSNRPSGVSNRFSGSKSGNTASLTISGLQAEDEADYYCSSYTSSSTYVFGTGTKVTVLG
B15: CR6260 (antibody, V domains shown)
VH: EVQLVESGAEVKKPGSSVKVSCKASGGPFRSYAISWVRQAPGQGPEWMGGIIPIFGTTKYAPKFQGRVTITADDFAGTVYMELSSLRSEDTAMYYCAKHMGYQVRETMDVWGKGTTVTVSS
VL: SYVLTQPPSVSGTPGQRVTISCSGSRSNVGDNSVYWYQHVPEMAPKLLVYKNTQRPSGVPARFSGSKSGTSASLAIIGLQSGDEADYYCVAWDDSVDGYVFGSGTKVTVLG
B16: CR6310 (antibody, V domains shown)
VH: EVQLVESGAEVKKPGSSVKVSCKASGGPFRSYAISWVRQAPGQGPEWMGGIIPIFGTTKYAPKFQGRVTITADDFAGTVYMELSSLRSEDTAMYYCAKHMGYQVRETMDVWGKGTTVTVSS
VL: SYVLTQPPSVSVAPGQTARITCGGNNIGSKSVHWYQQKPGQAPVLVVYDDSDRPSGIPERFSGSNSGNTATLTISRVEAGDEADYYCQVWDSSSDHAVFGGGTQLTVLG
B17: CR6268 (antibody, V domains shown)
VH: QVQLVQSGAEVKKPGSSVKVSCKASGGTFSSYAISWVRQAPGQGLEWMGGIMGMFGTTNYAQKFQGRVTITADEFTSAAYMELRSLRSEDTAVYYCARSSGYYPEYFQDWGQGTLVTVSS
VL: QSVLTQPPSESVSPGQTASVTCSGHKLGDKYVSWYQQKPGQSPVLLIYQDNRRPSGIPERFIGSNSGNTATLTISGTQALDEADYYCQAWDSSTAVFGGGTKLTVLG
B18: CR6336 (antibody, V domains shown)
VH: QMQLVQSGAEVKKPGSSVKVSCKASGGTFSSYAISWVRQAPGQGLEWMGGIFGMFGTANYAQKFQGRVTITADEFTSAAYMELSSLGSEDTAMYYCARSSGYYPQYFQDWGQGTLVTVSS
VL: EIVMTQSPGTLSLSPGQRATLSCRASQSVSSSYLAWYQQKPGQAPRLLMYGASSRATGIPDRFSGSGSGTDFTLTISRLEPEDFAVYYCQQYGSSSLTFGGGTKLEIKR

Tests used:
[1] = target: recombinant HA, subtype H5 (A/Vietnam/1203/2004 (H5N1)) (influenza A virus A/Vietnam/1203/2004 …, UniProt Q80A26 6-554); assay: ELISA, coated HA, IgG 5 µg/ml
[2] = target: recombinant HA, subtype H1 (A/New Caledonia/20/99 (H1N1)) (influenza A virus A/New Caledonia/20/99 …, UniProt Q289M7 18-565); assay: ELISA, coated HA, IgG 5 µg/ml
[3] = target: recombinant HA, subtype H3 (A/Wyoming/3/2003(H3N2)) (influenza A virus A/Wyoming/3/2003 …); assay: ELISA, coated HA, IgG 5 µg/ml
[4] = target: full-length HA from isolate A/Vietnam/1194/2004 (H5N1TV) on PER.C6 cells (influenza A virus A/Vietnam/1194/2004 …, UniProt Q80A26 6-554); assay: flow cytometry, transfected PER.C6 cells
[5] = target: soluble recombinant HA (sHA) of H5N1TV (influenza A virus A/Vietnam/1194/2004 …, UniProt Q6J8F6 17-528); assay: immunoblot (data not shown)

Row | Binder | OD 492 nm [1] | OD 492 nm [2] | OD 492 nm [3] | flow cytometry signal at 0.1 µg/ml [4] | flow cytometry signal at 1 µg/ml [4] | flow cytometry signal at 10 µg/ml [4] | binding result [5]
1 | B1 | 1.02 OD 492 nm | 1.48 OD 492 nm | 0.09 OD 492 nm | 8.06 | 20.9 | 84.3 | –
2 | B2 | 1.78 OD 492 nm | 2.43 OD 492 nm | 0.07 OD 492 nm | – | – | – | –
3 | B3 | – | – | – | – | – | – | binds
4 | B4 | 1.31 OD 492 nm | 1.8 OD 492 nm | 0.09 OD 492 nm | 107 | 328 | 768 | –
5 | B5 | – | – | 0.08 OD 492 nm | – | – | – | –
6 | B6 | 1.11 OD 492 nm | – | 0.08 OD 492 nm | – | – | – | –
7 | B7 | 1.32 OD 492 nm | – | 0.06 OD 492 nm | – | – | – | –
8 | B8 | 1.65 OD 492 nm | 2.2 OD 492 nm | 0.15 OD 492 nm | – | – | – | –
9 | B9 | – | – | 0.07 OD 492 nm | – | – | – | –
10 | B10 | 1.19 OD 492 nm | 2.04 OD 492 nm | 0.07 OD 492 nm | – | – | – | –
11 | B11 | 1.44 OD 492 nm | 1.91 OD 492 nm | 0.08 OD 492 nm | 60.4 | 257 | 414 | –
12 | B12 | – | – | 0.07 OD 492 nm | – | – | – | –
13 | B13 | 1.48 OD 492 nm | 1.93 OD 492 nm | 0.07 OD 492 nm | 44.5 | 167 | 400 | –
14 | B14 | 1.37 OD 492 nm | 1.93 OD 492 nm | 0.08 OD 492 nm | 62.1 | 284 | 365 | –
15 | B15 | 1.45 OD 492 nm | – | 0.08 OD 492 nm | 31.1 | 168 | 323 | –
16 | B16 | 1.37 OD 492 nm | – | 0.08 OD 492 nm | – | – | – | –
17 | B17 | 1.3 OD 492 nm | 1.78 OD 492 nm | 0.08 OD 492 nm | 43.7 | 219 | 422 | –
18 | B18 | 1.41 OD 492 nm | 1.92 OD 492 nm | 0.1 OD 492 nm | – | – | – | –
